Results published in publication PMC6582412.

Experiments:
[1] = tested on: LrAgo (Limnothrix rosea IAM M-220); experiment: double-filter binding; conditions: 5'-phosphate
[2] = tested on: LrAgo (Limnothrix rosea IAM M-220); experiment: competition

Sequence	Kd [1] [nM]	Kd ([2]; 5'-phosphate) [nM]	Kd ([2]; 5'-hydroxyl) [nM]
GTTAGACTTTAAGTCAAT [18 nt 5'-P guide DNA (G-guide)]	0.0348	0.0333	–
GTTAGACTTTAAGTCAAT [18 nt 5'-OH guide DNA (G-guide)]	–	–	0.0456
